According to FireProtDB (doi:10.1021/bi00236a021):
Values joined by “and” are separate entries in the source; they are usually repeats but may differ in a detail not shown here. Equal values may be shown once.

Conditions: Escherichia coli (strain K12), whole UniProt chain shown
[1] = pH 7, Thermal, CD, Potassium phosphate 10 mM
[2] = pH 8, 30 °C, GdnHCl, Fluorescence, Tris-HCl 50 mM

B1: Glutaredoxin 1 wild type, P68688 (protein)
chain: MQTVIFGRSGCPYCVRAKDLAEKLSNERDDFQYQYVDIRAEGITKEDLQQKAGKPVETVPQIFVDQQHIGGYTDFAAWVKENLDA
**Q.** For B1, which unfolding free energy (pH 7, 25 °C, Thermal, CD, Potassium phosphate 10 mM) is on record?
**A.** 4.7 kcal/mol

**Q.** And the unfolding free energy (pH 7, 30 °C, Thermal, CD, Potassium phosphate 10 mM)?
**A.** 4.1 kcal/mol and 5 kcal/mol

**Q.** And the Tm [1]?
**A.** 55 °C and 57 °C

**Q.** And the “unfolding enthalpy (van 't Hoff)” value [1]?
**A.** 67 kcal/mol and 75 kcal/mol

**Q.** And the “denaturant midpoint (higher = more stable)” value [2]?
**A.** 2 M

**Q.** What about the unfolding free energy [2] of the same protein?
**A.** 4.2 kcal/mol and 6.1 kcal/mol
